US7147850

Assays:
[1] = molecular target: MUC-1 glycoprotein on untreated ZR-75-1 cells (glycosylated MUC-1) (human) (UniProt P15941); assay: FACScan on untreated ZR-75-1 cells (PBS control 6.23)
[2] = molecular target: MUC-1 on ZR-75-1 cells deglycosylated with 4 mM Phenyl-N-alpha-D-Glucosamide (unglycosylated MUC-1) (human) (UniProt P15941); assay: FACScan on deglycosylated ZR-75-1 cells (PBS control 6.76)
Chain of MUC-1 on ZR-75-1 cells deglycosylated with 4 mM Phenyl-N-alpha-D-Glucosamide (unglycosylated MUC-1) (human) (P15941 24-1255, form in doubt): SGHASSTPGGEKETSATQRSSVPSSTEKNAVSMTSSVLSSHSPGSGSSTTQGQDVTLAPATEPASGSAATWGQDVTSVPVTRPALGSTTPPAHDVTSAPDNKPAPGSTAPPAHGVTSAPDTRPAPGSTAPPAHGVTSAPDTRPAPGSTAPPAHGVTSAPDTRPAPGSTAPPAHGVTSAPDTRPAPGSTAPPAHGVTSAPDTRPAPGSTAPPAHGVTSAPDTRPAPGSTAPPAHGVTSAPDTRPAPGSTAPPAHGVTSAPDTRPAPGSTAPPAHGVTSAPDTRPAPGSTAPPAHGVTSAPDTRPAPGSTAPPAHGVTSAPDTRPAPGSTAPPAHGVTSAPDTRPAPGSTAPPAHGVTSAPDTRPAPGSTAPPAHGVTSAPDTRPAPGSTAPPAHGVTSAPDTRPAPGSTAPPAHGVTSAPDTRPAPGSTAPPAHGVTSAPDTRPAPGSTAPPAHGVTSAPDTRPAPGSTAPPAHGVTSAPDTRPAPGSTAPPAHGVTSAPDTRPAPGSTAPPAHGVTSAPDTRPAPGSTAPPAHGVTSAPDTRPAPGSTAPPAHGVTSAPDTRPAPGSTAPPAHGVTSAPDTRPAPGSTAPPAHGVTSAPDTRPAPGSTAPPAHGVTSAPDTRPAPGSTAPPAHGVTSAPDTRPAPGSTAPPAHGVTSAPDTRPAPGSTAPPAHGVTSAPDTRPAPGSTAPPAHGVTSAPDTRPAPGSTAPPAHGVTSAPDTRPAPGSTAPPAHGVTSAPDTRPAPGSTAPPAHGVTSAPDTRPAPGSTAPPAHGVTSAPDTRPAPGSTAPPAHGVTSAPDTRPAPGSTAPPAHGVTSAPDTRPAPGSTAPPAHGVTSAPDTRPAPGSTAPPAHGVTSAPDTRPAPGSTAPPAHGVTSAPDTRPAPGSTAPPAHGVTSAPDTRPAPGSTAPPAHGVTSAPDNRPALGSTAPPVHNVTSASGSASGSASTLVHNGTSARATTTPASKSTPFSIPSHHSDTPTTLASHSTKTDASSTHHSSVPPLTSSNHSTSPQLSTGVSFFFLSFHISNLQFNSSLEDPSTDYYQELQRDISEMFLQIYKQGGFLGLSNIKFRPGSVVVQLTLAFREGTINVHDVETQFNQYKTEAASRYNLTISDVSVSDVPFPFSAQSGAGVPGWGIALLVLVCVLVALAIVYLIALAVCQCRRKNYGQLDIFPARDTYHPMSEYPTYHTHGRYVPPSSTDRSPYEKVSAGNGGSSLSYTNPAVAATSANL

Chain of MUC-1 glycoprotein on untreated ZR-75-1 cells (glycosylated MUC-1) (human) (P15941 24-1255): as the sequence (P15941 24-1255, form in doubt) above

- % positive cells [1]: 7.49%
- % positive cells [2]: 41.3%
Substance: SM3 (antibody)
